Test results reported in patent publication US20240060050A1, “CANINE HEPATIC ORGANOIDS” (Iowa State University Research Foundation, Inc., priority 2021, published 2024).

B1: Anti Hot: 337 bp ssDNA HDR template, antisense strand, with 4 bp [ATAG] deletion, electroporated with Cas9 RNP (nucleic acid)
antisense: CAAAGCGATAAGTTTAACCGAACTATCCAACATATACAACCACCCCTGTTACCGACGGTAGTAGGTACCTCGACGTGAGGGAGAGTACTACGACCAAAAACCTTTGTACTGTCGAAACGTTTACGTCCTTAAAGTTCTTTGTTTTGAAAAGGTCAATATTAATTACTTTCATTCATAATAAACACCGTGACTAGAATCTCCAAACTTCTTTTTAGACAATGAATCTTCCTACAAATCGGGAGTAATTTATGTAATCACACAAATAAAGACCCCCTTTTCCCTCCTCAGACTCGATGTCAATTATAACCATTATTCAAACTCTTCTATTATTAGTATT
B2: Sense Hot: 337 bp ssDNA HDR template, sense strand, with 4 bp [ATAG] deletion, electroporated with Cas9 RNP (nucleic acid)
sense: GTTTCGCTATTCAAATTGGCTTGATAGGTTGTATATGTTGGTGGGGACAATGGCTGCCATCATCCATGGAGCTGCACTCCCTCTCATGATGCTGGTTTTTGGAAACATGACAGCTTTGCAAATGCAGGAATTTCAAGAAACAAAACTTTTCCAGTTATAATTAATGAAAGTAAGTATTATTTGTGGCACTGATCTTAGAGGTTTGAAGAAAAATCTGTTACTTAGAAGGATGTTTAGCCCTCATTAAATACATTAGTGTGTTTATTTCTGGGGGAAAAGGGAGGAGTCTGAGCTACAGTTAATATTGGTAATAAGTTTGAGAAGATAATAATCATAA

System: ABCB1 (MDR1) gene, exon 4
Test: CRISPR/Cas9 HDR template insertion (ABCB1-1Δ knock-in) in liver organoids, amplicon sequencing
Format: cell-based, canine
Text: The HDR template was a Megamer single-stranded DNA (ssDNA) fragment ordered from IDT. It was designed with 35 bp homology arms with a total length of the ssDNA being 337 bp. The HDR template used the exact sequence as the canine organoids were derived from, with the only difference being the 4 bp deletion [ATAG] near the middle of the strand. Both the positive and negative strand were reconstituted separately to determine which incorporation was most efficient.
Approximately 500,000 cells were pooled for each electroporation cuvette. Media was removed from the wells, and organoids were resuspended in 500 μL Advanced DMEM/F12 (Gibco; Ref 12634-010). Organoids were centrifuged at 700 g at 4° C. for 5 min to form a pellet. Media was removed down to 500 μL, and the pellet was resuspended with 500 μL of TrypLETM Express (Gibco, Ref 12604-021) and pipette mixed approximately 15 times to assist in dissociation. Organoids were immediately placed in the hot water bath for 10 minutes at 37° C. and halfway through they were briefly (1 s) vortexed twice. After incubation, the sample was pipette mixed (5 times) and 10 μL of the sample was taken to determine cell concentration and check for successful dissociation. As described in Merenda et al. 2017, clusters of 10-15 cells increased survival post electroporation compared to a single cell suspension (Merenda et al., 2017). Immediately 6 mL of Advanced DMEM/F12 was added to stop the chemical dissociation. Again, organoids were centrifuged at 700 g at 4° C. for 5 min to form a pellet and the supernatant was removed.
During dissociation, the ribonucleoprotein (RNP) was prepared. 150 pmol of crRNA (IDT) and 150 pmol of tracrRNA (IDT) were mixed and heated for 5 min at 95° C. in a thermocycler. Next, the mixture was removed from the heat and allowed to cool to room temperature for ˜10 minutes. Then, 300 pmol of Cas9 Nuclease V3 (IDT) was added and incubated for 10 min at room temperature (RT).
The organoid pellet was resuspended in 90 μL of BTXpress electroporation solution (BTX; Ref 45-0801). […] The solution was added to a chilled cuvette and after the addition of the solution, the cuvette was checked for bubbles, the outside was wiped dry, and placed in a NEPA21 electroporator (Nepagene). The electroporation details can be seen in Table 6. A control GFP plasmid was electroporated separately to help determine the efficiency of electroporation. It is common to add a buffer or media solution to assist in cell recovery after electroporation. Immediately following electroporation, 400 μL of room temperature CMGF+ R/G organoid media as previously described was added to the cuvette, and the organoids were transferred to a 1.5 mL tube. The cell mixture was incubated for 30 min at RT then centrifuged at 700 g for 5 min to form a pellet. […]

[1] = cold shock: 30° C. for 48 hours after electroporation
[2] = incubation at 37° C. after electroporation

| Molecule | estimated efficiency of correct HDR template insertion [1] [%] | estimated efficiency of correct HDR template insertion [2] [%] |
| --- | --- | --- |
| B1 | 0 | ~0.00303 |
| B2 | ~0.0705 | ~0.0348 |
